Assay results reported in patent US7666414B2, “Methods for treating prostate cancer using modified antibodies to prostate-specific membrane antigen” (Cornell Research Foundation, Inc., priority 2001, dated 2010).
Like-named read-outs stand apart in the source and are kept apart here.

Legend:
[1] = target: prostate specific membrane antigen (Homo sapiens, UniProt Q04609); assay: Competitive binding sites on PSMA; details: relative to J591, J533, E99 site
Description: To kill or ablate normal, benign hyperplastic, and cancerous prostate epithelial cells, a first antibody, e.g., a modified antibody, can be conjugated with a prodrug which is activated only when in close proximity with a prodrug activator. The prodrug activator is conjugated with a second antibody, e.g., a second modified antibody according to the present invention, preferably one that binds to a non-competing site on the prostate specific membrane antigen molecule. Whether two modified antibodies bind to competing or non-competing binding sites can be determined by conventional competitive binding assays. […] Monoclonal antibody J415, on the other hand, binds to a binding site that is non-competing with the site to which J591, J533, and E99 bind. Thus, for example, the first modified antibody can be one of J591, J533, and E99, and the second modified antibody can be J415. Alternatively, the first modified antibody can be J415, and the second modified antibody can be one of J591, J533, and E99. Drug-prodrug pairs suitable for use in the practice of the present invention are described in Blakely et al., “ZD2767, an Improved System for Antibody-directed Enzyme Prodrug Therapy That Results in Tumor Regressions in Colorectal Tumor Xenografts,” (1996) Cancer Research, 56:3287-3292, which is hereby incorporated by reference.

[2] = target: T1, LNCap membrane preparation (Homo sapiens, UniProt Q04609); assay: ELISA for binding of J415 deimmunized antibodies to LNCap membrane preparation
T1 construct: ELISA plates were coated with LNCap membrane preparation; endogenous in cells; host or cells: LNCap (LNCaP) human prostate carcinoma cells, membrane preparation
Procedure: The J415 deimmunized antibodies (including various combinations of the deimmunized light chain and heavy chain subunits) were tested in an ELISA for binding to LNCap membrane preparation following the protocol as detailed above. ELISA plates were coated with LNCap membrane preparation and blocked with 5% BSA in phosphate buffered saline. Doubling dilutions of the J415 chimeric antibody (murine variable heavy and light chain regions fused to human constant heavy and light chain regions, respectively) and the deimmunized antibodies were applied. Detection was with horseradish peroxidase conjugated goat anti-human IgG and donkey anti-mouse for chimeric and mouse antibodies respectively. Color was developed with o-phenylene diamine substrate.

[3] = system: PSMA-positive human LNCaP tumors; assay: Biodistribution of 131I labeled MAbs in nude mice bearing LNCaP tumors; details: mouse, in vivo
Procedure: (§1) Prior to use, the cells were trypsinized, counted and suspended in Matrigel (Collaborative Biomedical Products, Bedford, Mass.). Nu/Nu Balb C mice 8-10 weeks of age were inoculated, in the right and left flanks, with a suspension of 5×10^6 LNCaP cells in Matrigel (BD Biosciences, Bedford Mass.). After a period of 14-18 days, tumors (100-300 mg) had developed. The PSMA-negative DU145 and PC3 cells were implanted in nude mice in an identical manner.
(§2) The PSMA-positive and PSMA-negative tumor bearing mice were injected, via the tail vein, with 80 KBq of the iodinated MAb (400 MBq/mg) in 200 μL of PBS (pH 7.4, 0.2% BSA). Groups of animals (3-8/group) were sacrificed after 2, 4 or 6 days. The major organs and tumors were recovered. The tissue samples were weighed and counted, with appropriate standards in an automatic NaI(Tl) counter. These measured relative activity data (cpm) were background corrected and expressed as a percentage of the injected dose per gram (% ID/g). […] J415, J591 and 7E11 were labeled with ^111In (100 MBq/mg). 80 KBq of the ^111In labeled MAbs were injected in groups of animals. The % ID/g in various organs and tumor tissues was determined at 2-6 days post injection in a similar way as described for ^131I labeled MAbs.

[4] = system: PSMA-positive human LNCaP tumors; parameters: species or system nude mice; details: mouse, in vivo
Procedure: as §1, §2
For the imaging studies, animals were injected with 2 MBq of ^111In-DOTA-J591. […]

prostate specific membrane antigen, sequence (Q04609 whole entry): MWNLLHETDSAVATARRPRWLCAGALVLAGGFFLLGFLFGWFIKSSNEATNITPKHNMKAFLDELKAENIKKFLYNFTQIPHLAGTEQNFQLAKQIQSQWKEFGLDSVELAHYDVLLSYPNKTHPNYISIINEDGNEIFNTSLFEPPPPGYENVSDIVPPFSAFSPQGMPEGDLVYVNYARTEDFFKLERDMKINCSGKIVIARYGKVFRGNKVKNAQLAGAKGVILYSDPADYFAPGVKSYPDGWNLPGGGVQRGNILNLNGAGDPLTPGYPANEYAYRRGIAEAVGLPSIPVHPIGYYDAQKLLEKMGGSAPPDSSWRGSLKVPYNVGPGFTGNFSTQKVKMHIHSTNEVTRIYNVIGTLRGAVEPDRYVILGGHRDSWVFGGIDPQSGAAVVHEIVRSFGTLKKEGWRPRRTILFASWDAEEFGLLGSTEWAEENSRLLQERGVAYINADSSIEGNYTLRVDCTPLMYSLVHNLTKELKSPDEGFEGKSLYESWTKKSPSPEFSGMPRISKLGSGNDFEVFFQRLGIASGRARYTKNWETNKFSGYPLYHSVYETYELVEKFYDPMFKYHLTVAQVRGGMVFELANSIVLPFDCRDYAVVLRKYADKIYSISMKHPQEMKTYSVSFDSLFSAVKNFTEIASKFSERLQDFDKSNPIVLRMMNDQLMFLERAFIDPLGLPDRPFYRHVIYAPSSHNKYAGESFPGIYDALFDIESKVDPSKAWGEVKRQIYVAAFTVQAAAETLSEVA
T1 sequence (Q04609 whole entry): as above

B1: J533: murine monoclonal antibody to human PSMA, hybridoma ATCC HB-12127 (antibody, V domains shown)
VH: EVQLQQSGPELVKPGASVKMSCKASGYTFTGYVMHWVKQKPGQVLEWIGYINPYNDVTRYNGKFKGKATLTSDKYSSTAYMELSGLTSEDSAVYYCARGENWYYFDSWGRGATLTVSS
VL: DIVLTQSPASLAVSLGQRATISCRASESIDSYDNTFMHWYQQKPGQPPNLLIFRASILESGIPARFSGSGSGTDFTLTIYPVEADDVATYYCHQSIEDPYTFGGGTKLEIK
binding site on the prostate specific membrane antigen molecule [1]: bind to competing binding sites

B2: DIVH4/DIVK5: deimmunized J415 heavy chain version 4 combined with deimmunized J415 light chain version 5 (antibody, V domains shown)
VH: EVKLEESGGGLVQPGGSMKISCVASGFTFSNYWMNWVRQSPEKGLEWVAEIRSQSNNFATHYAESVKGRVIISRDDSKSSVYLQMNSLRAEDTAVYYCTRRWNNFWGQGTTVTVSS
VL: NIVMTQFPKSMSASAGERMTLTCKASENVGTYVSWYQQKPTQSPKMLIYGASNRFTGVPDRFSGSGSGTDFILTISSVQAEDLVDYYCGQSYTFPYTFGGGTKLEMK
binding to LNCap as compared to the chimeric antibody [2]: equivalent binding

B3: J415: murine monoclonal antibody to human PSMA, hybridoma ATCC HB-12109 (antibody, V domains shown)
VH: EVKLEESGGGLVQPGGSMKLSCVASGFTFSNYWMNWVRQSPEKGLEWVAEIRSQSNNFATHYAESVKGRVIISRDDSKSSVYLQMNNLRAEDTGIYYCTRRWNNFWGQGTTLTVSS
VL: NIVMTQFPKSMSISVGERVTLTCKASENVGTYVSWYQQKPEQSPKMLIYGASNRFTGVPDRFTGSGSATDFILTISSVQTEDLVDYYCGQSYTFPYTFGGGTKLEMK
binding site on the prostate specific membrane antigen molecule [1]: non-competing
blood activity [3]: significantly lower compared to that of 7E11
tumor uptake [3]: 12.2±3.24 % injected dose/gram
tumor/blood and tumor/muscle ratios [3]: significantly higher
blood activity [4]: 2.63±0.23 % ID/g
tumor/blood ratios [4]: significantly higher

B4: E99: murine monoclonal antibody to human PSMA, hybridoma ATCC HB-12101 (antibody, V domains shown)
VH: QVQLKESGPGLVASSQSLSITCTVSGFSLTAYGINWVRQPPGKGLEWLGVIWPDGNTDYNSTLKSRLNIFKDNSKNQVFLKMSSFQTDDTARYFCARDSYGNFKRGWFDFWGQGTTLTVSS
VL: NIVMTQSQKFMSTSPGDRVRVTCKASQNVGSDVAWYQAKPGQSPRILIYSTSYRYSGVPDRFTAYGSGTDFTLTITNVQSEDLTEYFCQQYNSYPLTFGAGTKLELK
binding site on the prostate specific membrane antigen molecule [1]: bind to competing binding sites
